Measurements published in PMC4433263, “Identification of Rv3852 as an Agrimophol-Binding Protein in Mycobacterium tuberculosis” (PLoS ONE, 2015).

Legend:
[1] = target: T1, Rv3852 (Mycobacterium tuberculosis H37Rv) (UniProt I6YHB0); test: EMSA; details: binding buffer and pH not stated ([…]
T1 sequence: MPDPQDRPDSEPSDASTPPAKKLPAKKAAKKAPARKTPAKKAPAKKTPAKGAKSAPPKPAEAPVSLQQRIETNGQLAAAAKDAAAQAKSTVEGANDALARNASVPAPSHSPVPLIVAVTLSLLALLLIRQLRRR

Rv2466c = Rv2466c (UniProt O53193); test: EMSA; details: binding buffer and pH not stated ([…]
Rv2466c, sequence (O53193 whole entry): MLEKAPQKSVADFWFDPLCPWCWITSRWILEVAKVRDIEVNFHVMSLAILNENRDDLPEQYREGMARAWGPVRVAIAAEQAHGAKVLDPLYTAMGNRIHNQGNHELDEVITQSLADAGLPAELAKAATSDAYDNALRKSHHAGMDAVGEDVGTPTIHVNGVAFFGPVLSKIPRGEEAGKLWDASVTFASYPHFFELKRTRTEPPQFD

## AATTCCGGCGCCTTCCCGGGCCGGAAGCCGGGCAGCCGCACCTGTTTGGCCAGCTCTTTGTAGGCCCGCTGGAAATCCGGCTCAAGCTCGGCGAATGGCACCTCCACGTTGATACGAACCCGGGTGGGGCTCAACTGCTCGACGGTGCTCTTCACGGGTGTGCTCCTTGGTAGTCGATAACGGCGGTCGGCTGGTCGGGGTGACAGGATTTGAACCTGCGGCCTTCCGCTCCCAAAGCGGATGCGCTACCAAGCTGCGCTACACCCCGCGCTGACCTCGCGATCCTACG / AATTCGTAGGATCGCGAGGTCAGCGCGGGGTGTAGCGCAGCTTGGTAGCGCATCCGCTTTGGGAGCGGAAGGCCGCAGGTTCAAATCCTGTCACCCCGACCAGCCGACCGCCGTTATCGACTACCAAGGAGCACACCCGTGAAGAGCACCGTCGAGCAGTTGAGCCCCACCCGGGTTCGTATCAACGTGGAGGTGCCATTCGCCGAGCTTGAGCCGGATTTCCAGCGGGCCTACAAAGAGCTGGCCAAACAGGTGCGGCTGCCCGGCTTCCGGCCCGGGAAGGCGCCGG [proU2]
[1]
  binding: binds
Rv2466c
  binding: no binding
